Assay results reported in patent publication US20100330076A1 (RESEARCH DEVELOPMENT FOUNDATION, published 2010).
Positions count from the first letter of the chain named.

B1: Fc602 (other)
chain: DKTHTCPPCPAPELLGGPSVFLFPPKPKDTLMISRTPEVTCVVVDVSHEDPEVKFNWYVDGVEVHNAKTKPREEQYDSTYRVVSVLTVLHQDWLDGKEYKCKVSNKALPAPIEKTISKANGQPREPQVYTLPPSRDELTKNQVSLTCLVKGFYPSDIAVEWVSNGQPENNYKTTPPVLDSDGSFFLYSKLTVDKSRWQQGNVFSCSVIHEALHNHYTQKSLSLSPGK
notes: Aglycosylated Fc fragment (E. coli, pPelBFLAG), assayed on spheroplasts; not shown: C-terminal FLAG tag from pPelBFLAG
B2: Fc608 (other)
chain: B1 chain with D77N, D95N, N120K, G121V, K172E
notes: as for B1
B3: Fc605 (other)
chain: B1 chain with D77N, D95N, N120Q, A158D
notes: as for B1
B4: Fc604 (other)
chain: B1 chain with D77N, D95N, K118I
notes: as for B1
B5: Fc606 (other)
chain: B1 chain with D77N, D95N, N105S
notes: as for B1
B6: Fc607 (other)
chain: B1 chain with H4Y, E49K, D77N, D95N, N105S, N120K, G121V
notes: as for B1
B7: Fc603 (other)
chain: B1 chain with D77N, D95N
notes: as for B1

Target: T1, extracellular domain of recombinant glycosylated FcγRIa/CD64 (R&D Systems) labeled with FITC (human, UniProt P12314 16-292, FITC-labeled; glycosylated)
T1 construct: extracellular domain; it is not restated for the bought reagent; also called FcγRIa-FITC; FcγRI-FITC
T1 sequence (P12314 16-292): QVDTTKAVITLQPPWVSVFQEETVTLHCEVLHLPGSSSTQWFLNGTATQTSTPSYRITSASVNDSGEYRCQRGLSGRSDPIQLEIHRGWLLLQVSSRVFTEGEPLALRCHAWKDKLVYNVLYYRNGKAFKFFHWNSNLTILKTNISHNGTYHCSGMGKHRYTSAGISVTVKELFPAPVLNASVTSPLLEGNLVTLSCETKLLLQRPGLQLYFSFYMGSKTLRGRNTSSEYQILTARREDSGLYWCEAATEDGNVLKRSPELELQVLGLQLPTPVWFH
Experiment: flow cytometry of E. coli spheroplasts labeled with FcγRIa-FITC (summary in Example 3)

Binding result, binds:
B1
B2
B3
B4
B5
B6
B7
